Reference: ChEMBL document CHEMBL2073850, “Human organic anion transporters and human organic cation transporters mediate renal transport of prostaglandins” (J Pharmacol Exp Ther, 2002)

What was measured:
[1] = substrate: CCCCC[C@H](O)/C=C/[C@@H]1[C@@H](C/C=C\CCCC(=O)O)[C@@H](O)C[C@H]1O; test: (§1) TP_TRANSPORTER: uptake in OCT1-expressing S2 cells; assay type: functional, cell-based
[2] = substrate: CCCCC[C@H](O)/C=C/[C@H]1[C@H](O)CC(=O)[C@@H]1C/C=C\CCCC(=O)O; test: as §1; assay type: functional, cell-based
[3] = substrate: CCCCC[C@H](O)/C=C/[C@@H]1[C@@H](C/C=C\CCCC(=O)O)[C@@H](O)C[C@H]1O; test: TP_TRANSPORTER: uptake in OAT1-expressing S2 cells; assay type: functional, cell-based
[4] = substrate: CCCCC[C@H](O)/C=C/[C@H]1[C@H](O)CC(=O)[C@@H]1C/C=C\CCCC(=O)O; test: cells, lysate or membranes named
[5] = substrate: CCCCC[C@H](O)/C=C/[C@@H]1[C@@H](C/C=C\CCCC(=O)O)[C@@H](O)C[C@H]1O; test: (§2) TP_TRANSPORTER: uptake in OCT2-expressing S2 cells; assay type: functional, cell-based
[6] = substrate: CCCCC[C@H](O)/C=C/[C@H]1[C@H](O)CC(=O)[C@@H]1C/C=C\CCCC(=O)O; test: as §2; assay type: functional, cell-based
[7] = substrate: CCCCC[C@H](O)/C=C/[C@@H]1[C@@H](C/C=C\CCCC(=O)O)[C@@H](O)C[C@H]1O; test: (§3) TP_TRANSPORTER: uptake in OAT4-expressing S2 cells; assay type: functional, cell-based
[8] = substrate: CCCCC[C@H](O)/C=C/[C@H]1[C@H](O)CC(=O)[C@@H]1C/C=C\CCCC(=O)O; test: as §3; assay type: functional, cell-based
[9] = substrate: CCCCC[C@H](O)/C=C/[C@@H]1[C@@H](C/C=C\CCCC(=O)O)[C@@H](O)C[C@H]1O; test: (§4) TP_TRANSPORTER: uptake in OAT3-expressing S2 cells; assay type: functional, cell-based
[10] = substrate: CCCCC[C@H](O)/C=C/[C@H]1[C@H](O)CC(=O)[C@@H]1C/C=C\CCCC(=O)O; test: as §4; assay type: functional, cell-based
[11] = substrate: CCCCC[C@H](O)/C=C/[C@@H]1[C@@H](C/C=C\CCCC(=O)O)[C@@H](O)C[C@H]1O; test: (§5) TP_TRANSPORTER: uptake in OAT2-expressing S2 cells; assay type: functional, cell-based
[12] = substrate: CCCCC[C@H](O)/C=C/[C@H]1[C@H](O)CC(=O)[C@@H]1C/C=C\CCCC(=O)O; test: as §5; assay type: functional, cell-based

B1: Solute carrier family 22 member 1 (Homo sapiens) (protein)
chain: MPTVDDILEQVGESGWFQKQAFLILCLLSAAFAPICVGIVFLGFTPDHHCQSPGVAELSQRCGWSPAEELNYTVPGLGPAGEAFLGQCRRYEVDWNQSALSCVDPLASLATNRSHLPLGPCQDGWVYDTPGSSIVTEFNLVCADSWKLDLFQSCLNAGFLFGSLGVGYFADRFGRKLCLLGTVLVNAVSGVLMAFSPNYMSMLLFRLLQGLVSKGNWMAGYTLITEFVGSGSRRTVAIMYQMAFTVGLVALTGLAYALPHWRWLQLAVSLPTFLFLLYYWCVPESPRWLLSQKRNTEAIKIMDHIAQKNGKLPPADLKMLSLEEDVTEKLSPSFADLFRTPRLRKRTFILMYLWFTDSVLYQGLILHMGATSGNLYLDFLYSALVEIPGAFIALITIDRVGRIYPMAMSNLLAGAACLVMIFISPDLHWLNIIIMCVGRMGITIAIQMICLVNAELYPTFVRNLGVMVCSSLCDIGGIITPFIVFRLREVWQALPLILFAVLGLLAAGVTLLLPETKGVALPETMKDAENLGRKAKPKENTIYLKVQTSEPSGT
Work on B1 yielded a Km [1] of 0.477 µM and a Km [2] of 0.657 µM.

B2: Solute carrier family 22 member 6 (Homo sapiens) (protein)
chain: MAFNDLLQQVGGVGRFQQIQVTLVVLPLLLMASHNTLQNFTAAIPTHHCRPPADANLSKNGGLEVWLPRDRQGQPESCLRFTSPQWGLPFLNGTEANGTGATEPCTDGWIYDNSTFPSTIVTEWDLVCSHRALRQLAQSLYMVGVLLGAMVFGYLADRLGRRKVLILNYLQTAVSGTCAAFAPNFPIYCAFRLLSGMALAGISLNCMTLNVEWMPIHTRACVGTLIGYVYSLGQFLLAGVAYAVPHWRHLQLLVSAPFFAFFIYSWFFIESARWHSSSGRLDLTLRALQRVARINGKREEGAKLSMEVLRASLQKELTMGKGQASAMELLRCPTLRHLFLCLSMLWFATSFAYYGLVMDLQGFGVSIYLIQVIFGAVDLPAKLVGFLVINSLGRRPAQMAALLLAGICILLNGVIPQDQSIVRTSLAVLGKGCLAASFNCIFLYTGELYPTMIRQTGMGMGSTMARVGSIVSPLVSMTAELYPSMPLFIYGAVPVAASAVTVLLPETLGQPLPDTVQDLESRWAPTQKEAGIYPRKGKQTRQQQEHQKYMVPLQASAQEKNGL
B2 gave a Km [3] of 0.575 µM and a Km [4] of 0.97 µM.

B3: Solute carrier family 22 member 2 (Homo sapiens) (protein)
chain: MPTTVDDVLEHGGEFHFFQKQMFFLLALLSATFAPIYVGIVFLGFTPDHRCRSPGVAELSLRCGWSPAEELNYTVPGPGPAGEASPRQCRRYEVDWNQSTFDCVDPLASLDTNRSRLPLGPCRDGWVYETPGSSIVTEFNLVCANSWMLDLFQSSVNVGFFIGSMSIGYIADRFGRKLCLLTTVLINAAAGVLMAISPTYTWMLIFRLIQGLVSKAGWLIGYILITEFVGRRYRRTVGIFYQVAYTVGLLVLAGVAYALPHWRWLQFTVSLPNFFFLLYYWCIPESPRWLISQNKNAEAMRIIKHIAKKNGKSLPASLQRLRLEEETGKKLNPSFLDLVRTPQIRKHTMILMYNWFTSSVLYQGLIMHMGLAGDNIYLDFFYSALVEFPAAFMIILTIDRIGRRYPWAASNMVAGAACLASVFIPGDLQWLKIIISCLGRMGITMAYEIVCLVNAELYPTFIRNLGVHICSSMCDIGGIITPFLVYRLTNIWLELPLMVFGVLGLVAGGLVLLLPETKGKALPETIEEAENMQRPRKNKEKMIYLQVQKLDIPLN
B3 showed a Km [5] of 0.334 µM and a Km [6] of 0.0289 µM.

B4: Solute carrier family 22 member 11 (Homo sapiens) (protein)
chain: MAFSKLLEQAGGVGLFQTLQVLTFILPCLMIPSQMLLENFSAAIPGHRCWTHMLDNGSAVSTNMTPKALLTISIPPGPNQGPHQCRRFRQPQWQLLDPNATATSWSEADTEPCVDGWVYDRSVFTSTIVAKWDLVCSSQGLKPLSQSIFMSGILVGSFIWGLLSYRFGRKPMLSWCCLQLAVAGTSTIFAPTFVIYCGLRFVAAFGMAGIFLSSLTLMVEWTTTSRRAVTMTVVGCAFSAGQAALGGLAFALRDWRTLQLAASVPFFAISLISWWLPESARWLIIKGKPDQALQELRKVARINGHKEAKNLTIEVLMSSVKEEVASAKEPRSVLDLFCVPVLRWRSCAMLVVNFSLLISYYGLVFDLQSLGRDIFLLQALFGAVDFLGRATTALLLSFLGRRTIQAGSQAMAGLAILANMLVPQDLQTLRVVFAVLGKGCFGISLTCLTIYKAELFPTPVRMTADGILHTVGRLGAMMGPLILMSRQALPLLPPLLYGVISIASSLVVLFFLPETQGLPLPDTIQDLESQKSTAAQGNRQEAVTVESTSL
Work on B4 yielded a Km [7] of 0.692 µM and a Km [8] of 0.154 µM.

B5: Organic anion transporter 3 (Homo sapiens) (protein)
chain: MTFSEILDRVGSMGHFQFLHVAILGLPILNMANHNLLQIFTAATPVHHCRPPHNASTGPWVLPMGPNGKPERCLRFVHPPNASLPNDTQRAMEPCLDGWVYNSTKDSIVTEWDLVCNSNKLKEMAQSIFMAGILIGGLVLGDLSDRFGRRPILTCSYLLLAASGSGAAFSPTFPIYMVFRFLCGFGISGITLSTVILNVEWVPTRMRAIMSTALGYCYTFGQFILPGLAYAIPQWRWLQLTVSIPFFVFFLSSWWTPESIRWLVLSGKSSKALKILRRVAVFNGKKEEGERLSLEELKLNLQKEISLAKAKYTASDLFRIPMLRRMTFCLSLAWFATGFAYYSLAMGVEEFGVNLYILQIIFGGVDVPAKFITILSLSYLGRHTTQAAALLLAGGAILALTFVPLDLQTVRTVLAVFGKGCLSSSFSCLFLYTSELYPTVIRQTGMGVSNLWTRVGSMVSPLVKITGEVQPFIPNIIYGITALLGGSAALFLPETLNQPLPETIEDLENWSLRAKKPKQEPEVEKASQRIPLQPHGPGLGSS
B5 showed a Km [9] of 1.09 µM and a Km [10] of 0.345 µM.

B6: Solute carrier family 22 member 7 (Homo sapiens) (protein)
chain: MGFEELLEQVGGFGPFQLRNVALLALPRVLLPLHFLLPIFLAAVPAHRCALPGAPANFSHQDVWLEAHLPREPDGTLSSCLRFAYPQALPNTTLGEERQSRGELEDEPATVPCSQGWEYDHSEFSSTIATESQWDLVCEQKGLNRAASTFFFAGVLVGAVAFGYLSDRFGRRRLLLVAYVSTLVLGLASAASVSYVMFAITRTLTGSALAGFTIIVMPLELEWLDVEHRTVAGVLSSTFWTGGVMLLALVGYLIRDWRWLLLAVTLPCAPGILSLWWVPESARWLLTQGHVKEAHRYLLHCARLNGRPVCEDSFSQEAVSKVAAGERVVRRPSYLDLFRTPRLRHISLCCVVVWFGVNFSYYGLSLDVSGLGLNVYQTQLLFGAVELPSKLLVYLSVRYAGRRLTQAGTLLGTALAFGTRLLVSSDMKSWSTVLAVMGKAFSEAAFTTAYLFTSELYPTVLRQTGMGLTALVGRLGGSLAPLAALLDGVWLSLPKLTYGGIALLAAGTALLLPETRQAQLPETIQDVERKSAPTSLQEEEMPMKQVQN
B6 gave a Km [11] of 0.425 µM and a Km [12] of 0.713 µM.
